{"source": "the Human Domainome abundance scans (Beltran et al. 2025)", "parents": {"B1": {"name": "Zinc finger MYM-type protein 3, residues 405 to 444; numbered along this chain, Q14202 (parent)", "chain": "DATRCSICQKTGEVLHEVSNGSVVHRLCSDSCFSKFRANK"}}, "note": "± gives the uncertainty stated by the source."}
{"variants_of": "B1", "assay": "abundance fitness (aPCA) (normalised: wild type 0, dead -1); higher = more abundant; growth selection in yeast, the domain comes from the species named", "settings": "Homo sapiens"}
{"variant": "DATRCSICQKTGEVLHEVSNGSVVHRLCSDSCFSKFRKNK", "note": "[A38K]", "abundance fitness": "-0.228 ± 0.086"}
{"variant": "DATRCSICQKTGEVLHEVSNGSVVHRLCSDSCFSKFRDNK", "note": "[A38D]", "abundance fitness": "-0.139 ± 0.076"}
{"variant": "DATRCSHCQKTGEVLHEVSNGSVVHRLCSDSCFSKFRANK", "note": "[I7H]", "abundance fitness": "-0.267 ± 0.11"}
{"variant": "DATRCSSCQKTGEVLHEVSNGSVVHRLCSDSCFSKFRANK", "note": "[I7S]", "abundance fitness": "-0.269 ± 0.063"}
{"variant": "DATRCSACQKTGEVLHEVSNGSVVHRLCSDSCFSKFRANK", "note": "[I7A]", "abundance fitness": "-0.325 ± 0.064"}
{"variant": "DATRCSECQKTGEVLHEVSNGSVVHRLCSDSCFSKFRANK", "note": "[I7E]", "abundance fitness": "-0.332 ± 0.065"}
{"variant": "DATRASICQKTGEVLHEVSNGSVVHRLCSDSCFSKFRANK", "note": "[C5A]", "abundance fitness": "-1.29 ± 0.094"}
{"variant": "DATRWSICQKTGEVLHEVSNGSVVHRLCSDSCFSKFRANK", "note": "[C5W]", "abundance fitness": "-1.06 ± 0.098"}
{"variant": "DATRSSICQKTGEVLHEVSNGSVVHRLCSDSCFSKFRANK", "note": "[C5S]", "abundance fitness": "-0.922 ± 0.097"}
{"variant": "DATRTSICQKTGEVLHEVSNGSVVHRLCSDSCFSKFRANK", "note": "[C5T]", "abundance fitness": "-0.836 ± 0.088"}
{"variant": "DATRCSICQKTGEVLHEESNGSVVHRLCSDSCFSKFRANK", "note": "[V18E]", "abundance fitness": "-0.15 ± 0.059"}
{"variant": "DATRCSICQKTGEVLHEMSNGSVVHRLCSDSCFSKFRANK", "note": "[V18M]", "abundance fitness": "-0.266 ± 0.074"}
{"variant": "DATRCSICQKTGEVLHEQSNGSVVHRLCSDSCFSKFRANK", "note": "[V18Q]", "abundance fitness": "-0.243 ± 0.063"}
{"variant": "DATRCWICQKTGEVLHEVSNGSVVHRLCSDSCFSKFRANK", "note": "[S6W]", "abundance fitness": "-0.182 ± 0.063"}
{"variant": "DATRCDICQKTGEVLHEVSNGSVVHRLCSDSCFSKFRANK", "note": "[S6D]", "abundance fitness": "-0.302 ± 0.091"}
{"variant": "DATRCIICQKTGEVLHEVSNGSVVHRLCSDSCFSKFRANK", "note": "[S6I]", "abundance fitness": "-0.021 ± 0.16"}
{"variant": "DATRCSICQKTGEVLHEVSNRSVVHRLCSDSCFSKFRANK", "note": "[G21R]", "abundance fitness": "-0.354 ± 0.054"}
{"variant": "DATRCSICQKTGEVLHEVSNWSVVHRLCSDSCFSKFRANK", "note": "[G21W]", "abundance fitness": "-0.701 ± 0.07"}
{"variant": "DATRCSICQKTGEVLHEVSNSSVVHRLCSDSCFSKFRANK", "note": "[G21S]", "abundance fitness": "-0.193 ± 0.064"}
{"variant": "DATRCSICQKTGEVLHEVSNGSVVHRLCVDSCFSKFRANK", "note": "[S29V]", "abundance fitness": "-0.596 ± 0.062"}
{"variant": "DATRCSICQKTGEVLHEVSNGSVVHRLCKDSCFSKFRANK", "note": "[S29K]", "abundance fitness": "-0.602 ± 0.09"}
{"variant": "DATRCSICMKTGEVLHEVSNGSVVHRLCSDSCFSKFRANK", "note": "[Q9M]", "abundance fitness": "-0.123 ± 0.08"}
{"variant": "DATRCSICKKTGEVLHEVSNGSVVHRLCSDSCFSKFRANK", "note": "[Q9K]", "abundance fitness": "-0.05 ± 0.064"}
{"variant": "DATRCSICPKTGEVLHEVSNGSVVHRLCSDSCFSKFRANK", "note": "[Q9P]", "abundance fitness": "-0.606 ± 0.075"}
{"variant": "DATRCSICGKTGEVLHEVSNGSVVHRLCSDSCFSKFRANK", "note": "[Q9G]", "abundance fitness": "-0.16 ± 0.056"}
{"variant": "DATRCSICQKTGEVEHEVSNGSVVHRLCSDSCFSKFRANK", "note": "[L15E]", "abundance fitness": "-0.227 ± 0.062"}
{"variant": "DATRCSICQKTGEVYHEVSNGSVVHRLCSDSCFSKFRANK", "note": "[L15Y]", "abundance fitness": "-0.142 ± 0.3"}
{"variant": "DATRCSICQKTGEVGHEVSNGSVVHRLCSDSCFSKFRANK", "note": "[L15G]", "abundance fitness": "-0.153 ± 0.056"}
{"variant": "DATRCSICQLTGEVLHEVSNGSVVHRLCSDSCFSKFRANK", "note": "[K10L]", "abundance fitness": "-0.273 ± 0.056"}
{"variant": "DATRCSICQPTGEVLHEVSNGSVVHRLCSDSCFSKFRANK", "note": "[K10P]", "abundance fitness": "-0.877 ± 0.1"}
{"variant": "DATRCSICQDTGEVLHEVSNGSVVHRLCSDSCFSKFRANK", "note": "[K10D]", "abundance fitness": "-0.49 ± 0.1"}
{"variant": "DATRCSICQYTGEVLHEVSNGSVVHRLCSDSCFSKFRANK", "note": "[K10Y]", "abundance fitness": "-0.436 ± 0.16"}
{"variant": "DATRCSICQKTGEVLHEVSNGSVVHRLKSDSCFSKFRANK", "note": "[C28K]", "abundance fitness": "-0.823 ± 0.097"}
{"variant": "DATRCSICQKTGEVLHEVSNGSVVHRLNSDSCFSKFRANK", "note": "[C28N]", "abundance fitness": "-0.765 ± 0.11"}
{"variant": "DATRCSICQKTGEVLHEVSNGSVVHRLWSDSCFSKFRANK", "note": "[C28W]", "abundance fitness": "-1.02 ± 0.08"}
{"variant": "DATRCSICQKTGEVLHEVSNGSVVHRLISDSCFSKFRANK", "note": "[C28I]", "abundance fitness": "-0.95 ± 0.18"}
{"variant": "DATRCSICQKTGEVLHEVSNGSVVHRLGSDSCFSKFRANK", "note": "[C28G]", "abundance fitness": "-0.623 ± 0.054"}
{"variant": "DATRCSICQKTGEVLHEVSNGSVVHRLPSDSCFSKFRANK", "note": "[C28P]", "abundance fitness": "-0.639 ± 0.083"}
{"variant": "DATRCSICQKTGEVLHEVSNGSVVHRLQSDSCFSKFRANK", "note": "[C28Q]", "abundance fitness": "-0.809 ± 0.082"}
{"variant": "DATRCSICQKTGEVLHEVSNGSVVHRLTSDSCFSKFRANK", "note": "[C28T]", "abundance fitness": "-0.853 ± 0.094"}
{"variant": "DATRCSICQKTGEVLHEVSNGSVVHRLRSDSCFSKFRANK", "note": "[C28R]", "abundance fitness": "-0.873 ± 0.061"}
{"variant": "DATRCSICQKTGEVLHEVSNGSVVHRLHSDSCFSKFRANK", "note": "[C28H]", "abundance fitness": "-0.733 ± 0.086"}
{"variant": "DATRCSICQKTGEVLHEVSNGSVVHRCCSDSCFSKFRANK", "note": "[L27C]", "abundance fitness": "0.032 ± 0.07"}
{"variant": "DATRCSICQKTGEVLHEVSNGSVVHRECSDSCFSKFRANK", "note": "[L27E]", "abundance fitness": "-0.352 ± 0.067"}
{"variant": "DATRCSICQKTGEVLHEVSNGSVVHRKCSDSCFSKFRANK", "note": "[L27K]", "abundance fitness": "-0.317 ± 0.069"}
{"variant": "DATRCSICQKTGEVLHCVSNGSVVHRLCSDSCFSKFRANK", "note": "[E17C]", "abundance fitness": "-0.358 ± 0.081"}
{"variant": "DATRCSICQKTGEVLHWVSNGSVVHRLCSDSCFSKFRANK", "note": "[E17W]", "abundance fitness": "-0.959 ± 0.081"}
{"variant": "DATRCSICQKTGEVLHEVSNGSVVHRLCSDSCFLKFRANK", "note": "[S34L]", "abundance fitness": "-0.023 ± 0.061"}
{"variant": "DATRCSICQKTGEVLHEVSNGSVVHRLCSDSCFCKFRANK", "note": "[S34C]", "abundance fitness": "-0.729 ± 0.098"}
{"variant": "DATRCSICQKTGEVLHEVSMGSVVHRLCSDSCFSKFRANK", "note": "[N20M]", "abundance fitness": "-0.001 ± 0.072"}
{"variant": "DATRCSICQKTGEVLHEVSEGSVVHRLCSDSCFSKFRANK", "note": "[N20E]", "abundance fitness": "0.055 ± 0.053"}
{"variant": "DATRCSICQKKGEVLHEVSNGSVVHRLCSDSCFSKFRANK", "note": "[T11K]", "abundance fitness": "-0.354 ± 0.088"}
{"variant": "DATRCSICQKPGEVLHEVSNGSVVHRLCSDSCFSKFRANK", "note": "[T11P]", "abundance fitness": "-0.499 ± 0.078"}
{"variant": "DATRCSICQKLGEVLHEVSNGSVVHRLCSDSCFSKFRANK", "note": "[T11L]", "abundance fitness": "-0.116 ± 0.066"}
{"variant": "DATRCSICQKTDEVLHEVSNGSVVHRLCSDSCFSKFRANK", "note": "[G12D]", "abundance fitness": "-0.311 ± 0.11"}
{"variant": "DATRCSICQKTEEVLHEVSNGSVVHRLCSDSCFSKFRANK", "note": "[G12E]", "abundance fitness": "-0.083 ± 0.077"}
{"variant": "DATRCSICQKTQEVLHEVSNGSVVHRLCSDSCFSKFRANK", "note": "[G12Q]", "abundance fitness": "-0.228 ± 0.066"}
{"variant": "DATRCSICQKTGEVLYEVSNGSVVHRLCSDSCFSKFRANK", "note": "[H16Y]", "abundance fitness": "-0.466 ± 0.15"}
{"variant": "DATRCSICQKTGEVLQEVSNGSVVHRLCSDSCFSKFRANK", "note": "[H16Q]", "abundance fitness": "-0.053 ± 0.057"}
{"variant": "DATRCSICQKTGEVLIEVSNGSVVHRLCSDSCFSKFRANK", "note": "[H16I]", "abundance fitness": "-0.701 ± 0.13"}
{"variant": "DATRCSICQKTGEVLREVSNGSVVHRLCSDSCFSKFRANK", "note": "[H16R]", "abundance fitness": "-0.121 ± 0.051"}
{"variant": "DATRCSICQKTGEVLHEVSNGSVVNRLCSDSCFSKFRANK", "note": "[H25N]", "abundance fitness": "-0.031 ± 0.081"}
